From patent US20170002055A1, “Novel peptides and combination of peptides for use in immunotherapy against ovarian cancer and other cancers” (immatics biotechnologies GmbH, priority 2015, published 2017)

Target: HLA-A*02:01 (Homo sapiens, UniProt P04439, D140Y/D185E/D98H/E176V/E277Q/G131W/G231S/I119V/I121R/I166T/I218V/L300P/L318F/N151K/N90K/P208A/P217A/Q86G/Q94H/R138H/R169H/T345S)
Experiment: MHC binding assay (UV-ligand exchange, β2m ELISA, peptide exchange yield)
Conditions: MHC class I binding score; binding to HLA-A*02:01 ranged by peptide exchange yield (UV-ligand exchange, β2m ELISA)
Summary of the method: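 Peptide–HLA-A*02:01 complexes were formed by UV-mediated exchange of a UV-cleavable ligand for the test peptide. Exchange yield was measured by capturing complexes on streptavidin, detecting with HRP anti-β2m antibody (1 h, 37°C) and reading TMB absorbance at 450 nm.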

Substance | Peptide exchange
339 (GLWEIENNPTVKA; listed as Homo sapiens) [compound 339] | “++++” (≧75% = ++++)
340 (ALLSMTFPL; listed as Homo sapiens) [compound 340] | “++++” (≧75% = ++++)
341 (SQIALNEKLVNL; listed as Homo sapiens) [compound 341] | “+++” (≧50 = +++)
342 (HIYDKVMTV; listed as Homo sapiens) [compound 342] | “+++” (≧50 = +++)
343 (SLLEVNEESTV; listed as Homo sapiens) [compound 343] | “+++” (≧50 = +++)
344 (YLQDQHLLLTV; listed as Homo sapiens) [compound 344] | “+++” (≧50 = +++)
345 (VIWKALIHL; listed as Homo sapiens) [compound 345] | “+++” (≧50 = +++)
346 (LLDSKVPSV; listed as Homo sapiens) [compound 346] | “+++” (≧50 = +++)
347 (SLFKHDPAAWEA; listed as Homo sapiens) [compound 347] | “++++” (≧75% = ++++)
348 (ILLDVKTRL; listed as Homo sapiens) [compound 348] | “++++” (≧75% = ++++)
349 (SLTEYLQNV; listed as Homo sapiens) [compound 349] | “++++” (≧75% = ++++)
350 (ALLDVTHSELTV; listed as Homo sapiens) [compound 350] | “+++” (≧50 = +++)
351 (SLIPNLRNV; listed as Homo sapiens) [compound 351] | “+++” (≧50 = +++)
352 (SLLELLHIYV; listed as Homo sapiens) [compound 352] | “+++” (≧50 = +++)
353 (YLFEMDSSL; listed as Homo sapiens) [compound 353] | “++” (≧20% = ++)
354 (LILEGVDTV; listed as Homo sapiens) [compound 354] | “++” (≧20% = ++)

Substance | Peptide exchange
355 (SIQQSIERLLV; listed as Homo sapiens) [compound 355] | “++” (≧20% = ++)
356 (KLLGKLPEL; listed as Homo sapiens) [compound 356] | “+++” (≧50 = +++)
357 (SMHDLVLQV; listed as Homo sapiens) [compound 357] | “+++” (≧50 = +++)
358 (ALDEYTSEL; listed as Homo sapiens) [compound 358] | “++++” (≧75% = ++++)
359 (YLLPESVDL; listed as Homo sapiens) [compound 359] | “+++” (≧50 = +++)
361 (ALYELEGTTV; listed as Homo sapiens) [compound 361] | “+++” (≧50 = +++)
362 (TLYGLSVLL; listed as Homo sapiens) [compound 362] | “+++” (≧50 = +++)
363 (KVLDVSDLESV; listed as Homo sapiens) [compound 363] | “++” (≧20% = ++)
364 (LLQNEQFEL; listed as Homo sapiens) [compound 364] | “+++” (≧50 = +++)
365 (YVIDQGETDVYV; listed as Homo sapiens) [compound 365] | “+++” (≧50 = +++)
366 (RLLDMGETDLML; listed as Homo sapiens) [compound 366] | “+++” (≧50 = +++)
367 (SLQNHNHQL; listed as Homo sapiens) [compound 367] | “+++” (≧50 = +++)
369 (GLFPEHLIDV; listed as Homo sapiens) [compound 369] | “+++” (≧50 = +++)
370 (SLLQDLVSV; listed as Homo sapiens) [compound 370] | “+++” (≧50 = +++)
371 (FLQAHLHTA; listed as Homo sapiens) [compound 371] | “++++” (≧75% = ++++)
372 (TMLLNIPLV; listed as Homo sapiens) [compound 372] | “++” (≧20% = ++)
